Assay results reported in the supplement of paper PMC9170038.

system: K4 kissing-loop RNA reporter; assay: apparent KD of K4 kissing-loop reporter; higher = weaker reporter binding; details: Eterna round: R107; input ligand: FMN 200 uM
Procedure: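 RNA-MaP round R107: designed RNA switches with theophylline, tryptophan, arginine or FMN aptamers are transcribed on-chip within common flanks. They are titrated with a labelled K4 kissing-loop RNA reporter in RNA-MaP buffer (100 mM Tris pH 7.5, 80 mM KCl, 4 mM MgCl2), without ligand or with the indicated ligand. Median apparent KD per design.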
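Note: bound reporter read as fluorescence of individual clusters on recovered sequencing chips by microscopy, with normalized cluster intensities fitted with a binding model.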

**Q.** Which “apparent KD of K4 kissing-loop reporter” value does the source give for “GUAUCGCUAGGAGGAUAUUUCAAAUAAUAAAUAAAUGGAUAUUCGGAGUGAUGUUCCGAUUUACGGAAAGAAGGCCUAGUGAUAC [FMN B 2]” here?
**A.** Its value is 135 nM.

**Q.** “AAACAUCACUGGGAGUGAUGUUCUCAGUGACGAGGACCGGUACGGCCGCCACUCGCGAGAGAUAUAAUUAAGUAAUGACAUCAUU [Excl Tryptophan A V6]” was tested. Which “apparent KD of K4 kissing-loop reporter” value did it give?
**A.** Its value is 260 nM.

**Q.** How did the “apparent KD of K4 kissing-loop reporter” value turn out when “ACCUAGUAGACAGGAUAUCACCAUGACAGUGAUGUUGUCAUGCUCGAUUUGAGGAAACUCAGAUCGUGAGAAGGGUCUAACGACU [FMN B SS t7]” was run?
**A.** The value was 136 nM.

**Q.** With “CCUAUCUCAUACGAUACCAGUGAAUUUAUAUUUAUUAGCAGUGAUGUUGCAUUCCAAGUACACCCUUGGCAGCGUAUGGGAUAGG [Ex Theophylline B K4 22]” as the sequence, how does the “apparent KD of K4 kissing-loop reporter” value read?
**A.** Its value is 147 nM.

**Q.** “UCCUAGGCUCGAAAGAGCCUAGGAUUGACUCAGGAUAUCCGGAAACGGAGAAGGGAGUCACUAGUGAUGUUAGGGAUUCCCUAUU” was tested. Which “apparent KD of K4 kissing-loop reporter” value did it give?
**A.** Its value is 312 nM.

**Q.** With “GGAUAGGACAGAGGAUAUCUCUGAGGCAAGAAAACUUGUCUCAAAAGAGAUGACUCAGUGAUGUUGAGAGAAGGCUGUCCUAUCG [FmnBX 8 - #SwitchBubble #StaticStem]” as the sequence, how does the “apparent KD of K4 kissing-loop reporter” value read?
**A.** Its value is 256 nM.

**Q.** How did the “apparent KD of K4 kissing-loop reporter” value turn out when “GGGCCUAUUGAUGCUGGAGCAAUUCUGGAAGGAGCGCUCAAAGGAGCAGGUAGGUCGCCAGUAUGCAAGGGCAGUGAUGUUGCCC [Ersoarxe]” was run?
**A.** Its value is 238 nM.

**Q.** Which “apparent KD of K4 kissing-loop reporter” value does the source give for “UGGAUGUAGUGAUGUUAUAUAGAGAGUGAUACCAGUUUAGAGAAGAACCCUUGGCAGCAUAGAAGAGUAUCAUUGGAGAAGAAUG [ExTheophyl.Ar]” here?
**A.** Its value is 308 nM.

**Q.** “UUAGCCUAGCCAUAGUGAUGUUGUGGAAUACGAGGACCGGUACGGCCGCCACUCGCUCGACGGUGAUGACAUCAACGACCUUUAU [theeternabot_sameState_KL_Trp_A_38]” was tested. Which “apparent KD of K4 kissing-loop reporter” value did it give?
**A.** Its value is 312 nM.

**Q.** How did the “apparent KD of K4 kissing-loop reporter” value turn out when “AGUACGGACGCGGCCGCCACUCAGGAGAAGAAGGUAGUGAUGUUGCUUAUGGAGAGAUCAAUCAAGAGGACCGGGUGCCGUGCAA [#07 K4 Tryptophan B Same State]” was run?
**A.** Its value is 285 nM.

**Q.** With “UGGCGGCAAGGGUUAUUGGAAAGUAUUCGUCGAGGACCGGUACGGCCGCCACUCGAACACCAGUGAUGUUGGUCUGGUUUAAGCU [Exclusion Tryptophan A GF 22]” as the sequence, how does the “apparent KD of K4 kissing-loop reporter” value read?
**A.** Its value is 447 nM.

**Q.** For “UCGCUCGAGUAAGGAUAUCAAUAUCAAAGGUCGUAGUGAUGUUAUACCAGGCCAAUUUGGCGGUAGUGAGAAGGUACUAGCAGUU [theeternabot_sameState_KL_FMN_B_38]”, which “apparent KD of K4 kissing-loop reporter” value is on record?
**A.** Its value is 1090 nM.

**Q.** How did the “apparent KD of K4 kissing-loop reporter” value turn out when “GGAUAGGAUAGAGGAUAUGGUUUAUGCAAGAAUAACUUAUCGUGUAAAUCCAUAGGGAGUGAUGUUCCAGAAGGCUGUCCUAUCG [MatMod 12 - Jieux - Exclusion - FMN B]” was run?
**A.** Its value is 335 nM.

**Q.** “GGAGGCCAGGCCUGCGAAGUGAUGUUUUGACGAGGACCGGUACGGCCGCCACUCGAAUGUUCUAUCAUCGUACGAACUUCUGCGU [theeternabot_exclusion_KL_Trp_A_26]” was tested. Which “apparent KD of K4 kissing-loop reporter” value did it give?
**A.** Its value is 593 nM.

**Q.** “AGUGUUAGGUUAGAUACCAGCCGUUCGUGAAUAGUCUUCGAACCGCCAGUGAUGUUGGCAGGCCCUUGGCAGCUAACAGAACAGA [Lagelare]” was tested. Which “apparent KD of K4 kissing-loop reporter” value did it give?
**A.** Its value is 212 nM.

**Q.** For “UGUAAGCGCGUAGAUACCAGCAGACGAGUGAUGUUCGAGAGAUUAAGGAAAAGAAAGUGAUGCCCUUGGCAGCUAAUCAUAAGCG [whbob_Ex_Theo_B_sa95]”, which “apparent KD of K4 kissing-loop reporter” value is on record?
**A.** Its value is 278 nM.

**Q.** “GAGUCGGCACAAGGAUAUAGGUGUAGUGAUGUUAUGUCUCCUUGACUCACUCGUUACCCUCAACGUCUAGAAGGUGUGAAUGCAG [theeternabot_exclusion_KL_FMN_B_46]” was tested. Which “apparent KD of K4 kissing-loop reporter” value did it give?
**A.** The value was 328 nM.

**Q.** With “CGCGCGCGCCGCAAGGCGCGCGCGAACGAUACCAGUAUAUAAGAAUACCCUUGGCAGCGUAAGAAAGCUAUAGUGAUGUUGUAGA [#19 K4 Theophylline A Same State]” as the sequence, how does the “apparent KD of K4 kissing-loop reporter” value read?
**A.** Its value is 254 nM.

**Q.** Which “apparent KD of K4 kissing-loop reporter” value does the source give for “AUUUUUUUAUCAGGAUAUUAGUGUUGGUUUGUUUUGUUAGUGAUGUUGAUAUUUGUUUUAUGUAUUUAAGAAGGGAUUUAGAUGU [viuupullin]” here?
**A.** Its value is 270 nM.

**Q.** With “AGGAGCGUGGGAUGAAAAUCGCACGCUCCUCGAGGACCGGUACGGCCGCCACUCGCUCGCGCCGAGUGAUGUUCGGCCGGCGAAC [#2 Same State - Tryptophan A Attempt #12 (HarryS)]” as the sequence, how does the “apparent KD of K4 kissing-loop reporter” value read?
**A.** Its value is 265 nM.

**Q.** For “AGCAGUCACUCGAAAAACCAUCGAAGAUGGCGAGGACCGGUACGGCCGCCACUCGGAGUGAUGUUCCGAAGACUGCAAAAUAAAA [#SwitchBubble 15]”, which “apparent KD of K4 kissing-loop reporter” value is on record?
**A.** Its value is 350 nM.

**Q.** How did the “apparent KD of K4 kissing-loop reporter” value turn out when “AGUGAUGUUUUUUUUAAGAGUGAUGUUUUUCGAGGACCGGUACGGCCGCCACUCGAGUGAUGAGUGCGUUGUUGUGAUGUUUAGU [#11 K4 Tryptophan A Exclusion]” was run?
**A.** Its value is 438 nM.

**Q.** For “CAUUCGAAAUGCAGUGAUGUUGCAACCGAUACCAGUAUCGAAAGAUACCCUUGGCAGCGGAAAACCGCUACGUAUUUUUUGAAUG [Ex Theophylline A K4 26]”, which “apparent KD of K4 kissing-loop reporter” value is on record?
**A.** The value was 204 nM.

**Q.** “AGACUUCACCGAAGGAGCGACGUAGCCUAGUGAUGUUAGGCGCGAGAGAAAUCUCGUAUACGUCAGGUAGGUCGCGGUGAAGUCA [Omei KL Arginine B SS C v4]” was tested. Which “apparent KD of K4 kissing-loop reporter” value did it give?
**A.** The value was 163 nM.

**Q.** How did the “apparent KD of K4 kissing-loop reporter” value turn out when “AAUGAGGACACUUGCAACAGUCCUCGAAUACGAGGACCGGUACGGCCGCCACUCGAUAACUUGCAGUGAUGUUGCAAGUAAGAAU [(T)''-(K)'-(T)'-(T1)-(T2)-(K1)-(K2)_Design2]” was run?
**A.** The value was 227 nM.

**Q.** How did the “apparent KD of K4 kissing-loop reporter” value turn out when “AUUUUAUUAACUGAUACCAGACUUAAUGAUUUGUAAAUUACUAGUGAUGUUAGUGAUUCUGUCCCUUGGCAGCAGUAUUUAUUUA [JR_ExcTheophyB_Sub013]” was run?
**A.** The value was 76.2 nM.
